Results as given in paper PMC3260238, “The Werner Syndrome Protein Is Distinguished from the Bloom Syndrome Protein by Its Capacity to Tightly Bind Diverse DNA Structures”.

What was measured:
WRN [1] = target: T1, WRN (human, UniProt Q14191 1-1432); test: EMSA; ATPgS, 4 mM Mg2+; EMSA: 40 mM Tris-HCl pH 8.0, 4 mM MgCl2, 5 mM DTT, 1 mM ATPgS, 0.1 ug BSA in 10 ul, 4 C, 20 min; +10 mM KCl for quadruplexes; 4% gel, 0.5x Tris-glycine pH 8.3; conditions: protein: recombinant, tags: His6
WRN [2] = target: T1, WRN; test: EMSA; ATPgS, 10 mM KCl; tight, similar to G'2 TeR43; EMSA: 40 mM Tris-HCl pH 8.0, 4 mM MgCl2, 5 mM DTT, 1 mM ATPgS, 0.1 ug BSA in 10 ul, 4 C, 20 min; +10 mM KCl for quadruplexes; 4% gel, 0.5x Tris-glycine pH 8.3; conditions: protein: recombinant; tags: His6; label: 5'-32P; G4 dimer of 2 strands, described as antiparallel
WRN K577M = WRN K577M (human, UniProt Q14191 1-1432, K577M); test: EMSA; similar to wild type; EMSA: 40 mM Tris-HCl pH 8.0, 4 mM MgCl2, 5 mM DTT, 1 mM ATPgS, 0.1 ug BSA in 10 ul, 4 C, 20 min; +10 mM KCl for quadruplexes; 4% gel, 0.5x Tris-glycine pH 8.3; conditions: protein: recombinant; tags: His6; label: 5'-32P; G4 dimer of 2 strands, described as antiparallel
Chain of WRN K577M (Q14191 whole entry K577M): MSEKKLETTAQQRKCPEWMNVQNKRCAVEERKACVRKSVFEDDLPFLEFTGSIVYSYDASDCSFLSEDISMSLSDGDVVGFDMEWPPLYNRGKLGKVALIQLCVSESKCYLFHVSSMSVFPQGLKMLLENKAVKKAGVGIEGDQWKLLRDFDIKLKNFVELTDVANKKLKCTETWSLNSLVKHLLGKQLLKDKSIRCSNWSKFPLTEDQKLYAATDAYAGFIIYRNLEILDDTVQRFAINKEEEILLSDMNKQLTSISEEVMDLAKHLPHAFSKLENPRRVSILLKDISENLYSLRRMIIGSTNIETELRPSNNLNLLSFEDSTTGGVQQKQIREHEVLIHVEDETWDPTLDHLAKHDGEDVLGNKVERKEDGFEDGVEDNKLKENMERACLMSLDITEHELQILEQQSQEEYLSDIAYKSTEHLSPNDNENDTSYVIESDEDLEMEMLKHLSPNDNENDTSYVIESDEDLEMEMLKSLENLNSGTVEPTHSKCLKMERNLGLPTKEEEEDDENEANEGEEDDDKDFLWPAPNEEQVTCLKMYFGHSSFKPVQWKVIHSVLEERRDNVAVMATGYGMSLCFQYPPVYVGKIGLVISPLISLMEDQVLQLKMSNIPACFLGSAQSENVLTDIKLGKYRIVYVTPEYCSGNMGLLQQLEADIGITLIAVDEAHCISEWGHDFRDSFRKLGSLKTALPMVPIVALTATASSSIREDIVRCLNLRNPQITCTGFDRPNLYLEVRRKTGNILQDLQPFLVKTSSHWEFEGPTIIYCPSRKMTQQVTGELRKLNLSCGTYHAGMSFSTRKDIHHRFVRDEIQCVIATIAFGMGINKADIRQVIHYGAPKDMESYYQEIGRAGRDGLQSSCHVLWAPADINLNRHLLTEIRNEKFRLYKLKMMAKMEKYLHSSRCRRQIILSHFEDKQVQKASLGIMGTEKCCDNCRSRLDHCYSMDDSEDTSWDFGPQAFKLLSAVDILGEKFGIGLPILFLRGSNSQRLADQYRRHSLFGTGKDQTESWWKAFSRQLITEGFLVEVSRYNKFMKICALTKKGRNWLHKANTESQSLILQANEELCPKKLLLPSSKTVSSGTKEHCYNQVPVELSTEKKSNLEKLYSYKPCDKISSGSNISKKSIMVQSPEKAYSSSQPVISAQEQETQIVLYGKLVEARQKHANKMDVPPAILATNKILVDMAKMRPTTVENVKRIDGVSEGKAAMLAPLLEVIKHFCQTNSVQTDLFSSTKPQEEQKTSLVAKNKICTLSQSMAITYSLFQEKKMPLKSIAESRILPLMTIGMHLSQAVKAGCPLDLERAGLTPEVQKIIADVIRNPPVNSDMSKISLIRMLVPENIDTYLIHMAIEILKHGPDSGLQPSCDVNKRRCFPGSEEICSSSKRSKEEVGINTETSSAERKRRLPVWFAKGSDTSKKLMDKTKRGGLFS

WRN [3] = target: T1, WRN; test: EMSA; ATPgS, 4 mM Mg2+, 10 mM KCl; EMSA: 40 mM Tris-HCl pH 8.0, 4 mM MgCl2, 5 mM DTT, 1 mM ATPgS, 0.1 ug BSA in 10 ul, 4 C, 20 min; +10 mM KCl for quadruplexes; 4% gel, 0.5x Tris-glycine pH 8.3; conditions: protein: recombinant, tags: His6, label: 5'-32P
BLM = BLM (UniProt P54132 1-1417); test: as above; conditions: protein: recombinant; tags: C-terminal FLAG; label: 5'-32P; G4 tetramer of 4 parallel strands
Chain of BLM (P54132 whole entry): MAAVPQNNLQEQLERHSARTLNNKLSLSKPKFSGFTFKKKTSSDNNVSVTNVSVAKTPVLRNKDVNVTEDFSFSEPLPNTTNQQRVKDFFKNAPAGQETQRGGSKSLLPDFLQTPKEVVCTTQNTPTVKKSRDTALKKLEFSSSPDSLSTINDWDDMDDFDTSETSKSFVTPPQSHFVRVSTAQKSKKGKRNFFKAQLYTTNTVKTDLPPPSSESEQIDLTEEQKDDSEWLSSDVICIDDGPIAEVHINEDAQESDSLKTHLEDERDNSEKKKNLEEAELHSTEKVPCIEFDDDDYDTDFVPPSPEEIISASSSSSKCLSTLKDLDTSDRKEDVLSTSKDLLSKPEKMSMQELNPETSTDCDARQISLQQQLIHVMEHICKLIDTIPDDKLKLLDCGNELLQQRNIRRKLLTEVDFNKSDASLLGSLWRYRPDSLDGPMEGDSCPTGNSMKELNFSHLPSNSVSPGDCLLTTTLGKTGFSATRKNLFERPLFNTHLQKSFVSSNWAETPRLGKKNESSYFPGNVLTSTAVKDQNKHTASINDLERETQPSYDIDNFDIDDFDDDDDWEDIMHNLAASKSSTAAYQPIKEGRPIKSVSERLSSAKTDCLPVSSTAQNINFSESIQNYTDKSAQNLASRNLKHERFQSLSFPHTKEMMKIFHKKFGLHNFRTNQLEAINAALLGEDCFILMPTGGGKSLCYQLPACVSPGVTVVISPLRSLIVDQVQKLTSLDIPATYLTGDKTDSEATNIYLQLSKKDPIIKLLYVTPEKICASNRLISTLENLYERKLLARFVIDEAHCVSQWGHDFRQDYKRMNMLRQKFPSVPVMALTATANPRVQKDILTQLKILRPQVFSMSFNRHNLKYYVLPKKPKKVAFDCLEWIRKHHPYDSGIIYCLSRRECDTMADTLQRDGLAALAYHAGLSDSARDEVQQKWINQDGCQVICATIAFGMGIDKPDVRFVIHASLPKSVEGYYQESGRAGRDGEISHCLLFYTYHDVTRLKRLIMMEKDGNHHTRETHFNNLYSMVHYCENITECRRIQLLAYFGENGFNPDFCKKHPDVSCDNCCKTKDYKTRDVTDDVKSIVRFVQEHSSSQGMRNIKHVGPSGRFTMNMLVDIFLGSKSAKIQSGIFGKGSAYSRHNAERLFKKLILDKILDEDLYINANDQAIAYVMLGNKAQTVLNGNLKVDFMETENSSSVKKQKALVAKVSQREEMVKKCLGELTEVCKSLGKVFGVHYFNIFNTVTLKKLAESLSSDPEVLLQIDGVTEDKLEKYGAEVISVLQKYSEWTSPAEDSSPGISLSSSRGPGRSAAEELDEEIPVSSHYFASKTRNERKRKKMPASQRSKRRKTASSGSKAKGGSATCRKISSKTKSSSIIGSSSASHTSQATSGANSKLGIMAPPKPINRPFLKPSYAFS

T1 sequence (Q14191 whole entry): as the sequence (Q14191 whole entry K577M) above, with M577K counted along it

B1: 20/46 partial duplex (dsDNA)
DNA 1: CGCTAGCAATATTCTGCAGC
DNA 2: GCGCGGAAGCTTGGCTGCAGAATATTGCTAGCGGGAAATCGGCGCG
modifications: 3'-terminal inverted dC on the 20-mer
For B1, the Kd (WRN [1]; label: 5'-32P on strand 1, 20 bp, 13 nt 5' and 13 nt 3' tails on strand 2) was 2.3 ± 1.3 nM.

B2: dsTeR63 partial duplex (dsDNA)
DNA 1: GGTTAGGGTTAGGGTTAGGGTTAGGGTTAGTTAGGGTTAGGGTTAGGGTTAGGGGCGATTGAT
DNA 2: ATCAATCGCCCCTAACCC
Binder B2 has a Kd (WRN [1]; label: 5'-32P on strand 2, 18 bp, 45 nt 5' tail on strand 1) of 7.6 ± 2.9 nM.

B3: G'2 TeR63 quadruplex (structured_DNA)
DNA: GGTTAGGGTTAGGGTTAGGGTTAGGGTTAGTTAGGGTTAGGGTTAGGGTTAGGGGCGATTGAT
B3: binds (WRN [2]).

B4: Bubble DNA (dsDNA)
DNA 1: GCGCGGAAGCTTGGCTGCAGAATATTGCTAGCGGGAATTCGGCGCG
DNA 2: CGCGCCGAATTCCCGCTAGTGGCGCCTTGCAGCCAAGCTTCCGCGC
For B4, the Kd (WRN [1]; label: 5'-32P on strand 1, blunt, 8 nt non-complementary central bubble) was 24.7 ± 3.5 nM.

B5: G'2 TeR43 quadruplex (structured_DNA)
DNA: GGTTAGGGTTAGGGTTAGGGTTAGGGTTAGTTAGGGTTAGGGT
With B5 the binding result (WRN K577M) was “binds” and the Kd (WRN [3]; G4 dimer of 2 strands, described as antiparallel) was 0.26 ± 0.08 nM.

B6: Splayed arm DNA (dsDNA)
DNA 1: CGCGCCGAATTCCCGCTAGCAATATTCTGCAGCCAAGCTTCCGCGC
DNA 2: GGCGAACTGCCATTCGCACTTACACTGCTAGCGGGAATTCGGCGCG
Binder B6 has a Kd (WRN [1]; label: 5'-32P on strand 1, fork) of 6.2 ± 1.3 nM.

B7: G4 IgG quadruplex (structured_DNA)
DNA: TGGACCAGACCTAGCAGCTATGGGGGAGCTGGGGAAGGTGGGAATGTGA
With B7 the Kd (BLM) was 7 ± 2.9 nM and the Kd (WRN [3]; G4 tetramer of 4 parallel strands) was 3.4 ± 0.4 nM.
